Measurements taken from patent US20250171562A1.

Columns and labels:
[1] = target: IgE on basophils of allergic donors (human) (UniProt P01854); test: cell-based or functional assay
[2] = target: IgE on basophils of allergic donors (human) (UniProt P01854); test: IgE surface stain on donor basophils after 1 µM sdAb, flow cytometry
[3] = target: mixture of three Der p 2 specific recombinant human IgE clones H10, H12, P4E (human) (UniProt P01854); test: RBL-SX38 IgE displacement, FACS
[4] = target: IgE on basophils of allergic donors (human) (UniProt P01854); test: displacement of IgE from FcεRI on basophils, whole blood of an allergic donor, flow cytometry of surface IgE [panel C]
[5] = target: IgE on basophils of allergic donors (human) (UniProt P01854); test: displacement of IgE from FcεRI on basophils, whole blood of an allergic donor, flow cytometry of surface IgE [panel B]
[6] = target: IgE on basophils of allergic donors (human) (UniProt P01854); test: IgE surface stain on donor basophils, flow cytometry

Chain of IgE on basophils of allergic donors (human) (P01854 1-428): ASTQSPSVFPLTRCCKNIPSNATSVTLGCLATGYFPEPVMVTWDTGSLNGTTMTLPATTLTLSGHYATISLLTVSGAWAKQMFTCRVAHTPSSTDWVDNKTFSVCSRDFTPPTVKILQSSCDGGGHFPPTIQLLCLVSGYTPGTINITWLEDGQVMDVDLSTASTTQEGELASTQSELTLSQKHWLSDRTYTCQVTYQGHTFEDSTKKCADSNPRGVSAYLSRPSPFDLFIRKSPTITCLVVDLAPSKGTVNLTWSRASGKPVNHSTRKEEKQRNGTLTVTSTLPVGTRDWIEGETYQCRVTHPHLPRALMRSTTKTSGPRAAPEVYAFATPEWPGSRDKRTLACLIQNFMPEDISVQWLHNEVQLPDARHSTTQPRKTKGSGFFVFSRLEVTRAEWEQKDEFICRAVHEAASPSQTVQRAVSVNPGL
Chain of mixture of three Der p 2 specific recombinant human IgE clones H10, H12, P4E (human) (P01854 other isoform, or with tags, fused parts or gaps): as the sequence (P01854 1-428) above, with L428K counted along it

B1: sdAb A1 (VHH)
VHH: EVQLLESGGGLVQPGGSLRLSCAASGFTFGNYDMAWVRQAPGKRPEWVSSIDTGGDITHYADSVKGRFTISRDNAKNTLYLQMNSLRPEDTAVYWCATDEEYALGPNEFDYYGQGTLVTVSS
fold decrease in rDerp2-induced activation of basophils of a HDM allergic donor (% CD63 pos basophils) [1]: 10 fold | displacement effect measured by IgE expression [2]: 16% | Max effect/effect 1 µM [3]: 40%

B2: CIgG4B1A1(G4S)2 (Fc fusion)
chain 1: GPPCPPCPAPEFLGGPSVFLFPPKPKDTLMISRTPEVTCVVVDVSQEDPEVQFNWYVDGVEVHNAKTKPREEQFNSTYRVVSVLTVLHQDWLNGKEYKCKVSNKGLPSSIEKTISKAKGQPREPQVYTLPPCQEEMTKNQVSLWCLVKGFYPSDIAVEWESNGQPENNYKTTPPVLDSDGSFFLYSRLTVDKSRWQEGNVFSCSVMHEALHNHYTQKSLSLSLGKGGGGSGGGGSQVQLQESGGGLVQTGGSLRLSCAVHGRTFSNTGMGWFRQAPGNERQFVAIISPSGTSTYYADSVKGRFTISRDPAKNTVYLQMNSLKMDDTAVYYCAASYGSNWSTLRHQRRNEYDAWGQGTQVAVS
chain 2: GPPCPPCPAPEFLGGPSVFLFPPKPKDTLMISRTPEVTCVVVDVSQEDPEVQFNWYVDGVEVHNAKTKPREEQFNSTYRVVSVLTVLHQDWLNGKEYKCKVSNKGLPSSIEKTISKAKGQPREPQVCTLPPSQEEMTKNQVSLSCAVKGFYPSDIAVEWESNGQPENNYKTTPPVLDSDGSFFLVSRLTVDKSRWQEGNVFSCSVMHEALHNHYTQKSLSLSLGKGGGGSGGGGSEVQLLESGGGLVQPGGSLRLSCAASGFTFGNYDMAWVRQAPGKRPEWVSSIDTGGDITHYADSVKGRFTISRDNAKNTLYLQMNSLRPEDTAVYWCATDEEYALGPNEFDYYGQGTLVTVSS
EC50 (read off the curve) [4]: 3 nM | EC50 (read off the curve) [5]: 4 nM | EC50 [3]: 19.5 nM | Max effect/effect 1 µM [3]: 99%

B3: CIgG4B1A1(G4S3) (Fc fusion)
chain 1: GPPCPPCPAPEFLGGPSVFLFPPKPKDTLMISRTPEVTCVVVDVSQEDPEVQFNWYVDGVEVHNAKTKPREEQFNSTYRVVSVLTVLHQDWLNGKEYKCKVSNKGLPSSIEKTISKAKGQPREPQVYTLPPCQEEMTKNQVSLWCLVKGFYPSDIAVEWESNGQPENNYKTTPPVLDSDGSFFLYSRLTVDKSRWQEGNVFSCSVMHEALHNHYTQKSLSLSLGKGGGGSGGGGSGGGGSQVQLQESGGGLVQTGGSLRLSCAVHGRTFSNTGMGWFRQAPGNERQFVAIISPSGTSTYYADSVKGRFTISRDPAKNTVYLQMNSLKMDDTAVYYCAASYGSNWSTLRHQRRNEYDAWGQGTQVAVS
chain 2: GPPCPPCPAPEFLGGPSVFLFPPKPKDTLMISRTPEVTCVVVDVSQEDPEVQFNWYVDGVEVHNAKTKPREEQFNSTYRVVSVLTVLHQDWLNGKEYKCKVSNKGLPSSIEKTISKAKGQPREPQVCTLPPSQEEMTKNQVSLSCAVKGFYPSDIAVEWESNGQPENNYKTTPPVLDSDGSFFLVSRLTVDKSRWQEGNVFSCSVMHEALHNHYTQKSLSLSLGKGGGGSGGGGSGGGGSEVQLLESGGGLVQPGGSLRLSCAASGFTFGNYDMAWVRQAPGKRPEWVSSIDTGGDITHYADSVKGRFTISRDNAKNTLYLQMNSLRPEDTAVYWCATDEEYALGPNEFDYYGQGTLVTVSS
EC50 (read off the curve) [4]: 4 nM | EC50 (read off the curve) [5]: 6 nM | EC50 [3]: 14.1 nM | Max effect/effect 1 µM [3]: 99%

B4: A2+B1 (protein)
VHH 1: EVQLLESGGGLVQPGGSLRLSCAASGFRFGNYDMAWVRQAPGKRYEWVSSIDTGGDITHYADSVKGRFTISRDNAKNTLYLQMNSLRPEDTAEYWCATDEEYALGPNEFDYYGQGTLVTVS
VHH 2: QVQLQESGGGLVQTGGSLRLSCAVHGRTFSNTGMGWFRQAPGNERQFVAIISPSGTSTYYADSVKGRFTISRDPAKNTVYLQMNSLKMDDTAVYYCAASYGSNWSTLRHQRRNEYDAWGQGTQVAVS
displacement effect on IgE surface expression [6]: 100%

B5: A2+B2 (protein)
VHH 1: EVQLLESGGGLVQPGGSLRLSCAASGFRFGNYDMAWVRQAPGKRYEWVSSIDTGGDITHYADSVKGRFTISRDNAKNTLYLQMNSLRPEDTAEYWCATDEEYALGPNEFDYYGQGTLVTVS
VHH 2: QVQLVESGGGLVQAGGSLRLSCAVFGSTFSNNVADWYRQAPGKQRELVARISASGATREYGDSVKGRFTISRDDAKNTMYLQMNNLKPEDTAVYRCHKIEWEDLSRKDYWGQGTQVTVS
displacement effect on IgE surface expression [6]: 100%

B6: A2+B3 (protein)
VHH 1: EVQLLESGGGLVQPGGSLRLSCAASGFRFGNYDMAWVRQAPGKRYEWVSSIDTGGDITHYADSVKGRFTISRDNAKNTLYLQMNSLRPEDTAEYWCATDEEYALGPNEFDYYGQGTLVTVS
VHH 2: DVQLQESGGGLVQAGGSLRLSCAASGFIFRLAGMSWVRQAPGKGFEWVSGITMDGSTTNYADSVKGRFTISRDNSKNRLYLQMNSLKPEDTAVYYCARGAKGGYNDPRGQGTQVTVS
displacement effect on IgE surface expression [6]: 70%

B7: sdAb A2 (VHH)
VHH: EVQLLESGGGLVQPGGSLRLSCAASGFRFGNYDMAWVRQAPGKRYEWVSSIDTGGDITHYADSVKGRFTISRDNAKNTLYLQMNSLRPEDTAEYWCATDEEYALGPNEFDYYGQGTLVTVS
displacement effect on IgE surface expression [6]: 70%
